Source: patent US6514698
Like-named read-outs stand apart in the source and are kept apart here.

Legend:
[1] = target: M.HaeIII DNA methyltransferase (UniProt P20589); details: background 615
[2] = tested on: M.CviRI DNA methyltransferase
[3] = target: T1, M.EcoRI DNA methyltransferase (UniProt P00472)
T1 sequence: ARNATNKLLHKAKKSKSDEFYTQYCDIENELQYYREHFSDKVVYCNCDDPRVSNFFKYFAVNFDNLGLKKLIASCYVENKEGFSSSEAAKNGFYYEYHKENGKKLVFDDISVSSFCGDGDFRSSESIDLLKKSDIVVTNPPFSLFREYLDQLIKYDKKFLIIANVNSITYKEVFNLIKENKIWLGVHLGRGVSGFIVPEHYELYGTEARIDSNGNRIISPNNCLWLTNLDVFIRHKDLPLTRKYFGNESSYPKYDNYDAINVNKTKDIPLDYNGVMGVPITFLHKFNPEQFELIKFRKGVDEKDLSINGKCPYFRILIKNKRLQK

[4] = target: T2, M.BamHI DNA methyltransferase (UniProt P23941)
T2 sequence: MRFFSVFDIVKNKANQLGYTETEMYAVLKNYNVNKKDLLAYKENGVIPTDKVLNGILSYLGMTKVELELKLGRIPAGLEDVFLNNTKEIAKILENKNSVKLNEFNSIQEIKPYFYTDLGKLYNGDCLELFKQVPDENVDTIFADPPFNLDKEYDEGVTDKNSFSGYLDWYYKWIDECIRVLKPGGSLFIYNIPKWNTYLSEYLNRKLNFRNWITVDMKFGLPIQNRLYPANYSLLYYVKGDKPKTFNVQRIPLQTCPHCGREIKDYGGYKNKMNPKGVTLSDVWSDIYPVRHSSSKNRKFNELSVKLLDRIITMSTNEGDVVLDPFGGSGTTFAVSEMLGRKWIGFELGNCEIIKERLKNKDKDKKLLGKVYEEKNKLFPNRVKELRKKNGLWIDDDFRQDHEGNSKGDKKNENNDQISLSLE

[5] = 3H-methyl-SAM, 23 C, 5 mM EDTA, no MTase 574

pUC19
activity [1]: 26200 cpm
activity ([2]; background 615): 118000 cpm

pBluescript 191 bp amplicon predigested with BamHI
activity ([3]; background 661): 32800 cpm
activity ([4]; site cleaved, background 661): 999 cpm

GGTGGGAGAAGAAGATAAAAAGTAACATCTTTCTGCCTTCCAGATGATTCGAAGAATTTCTCCATCCAAGTGCGGCAGGTGGAGGATTGCCCTGTGGACATCTACTACTTGATGGACCTGTCTTACTCCATGCCGGATGATCTGTGGAGCATCCAGAACCTGGGTACCAAGCTGGCCACCCAGATGCGAAAGCTCACCAGTAACCTGCGGATTGGCTTCGGGGCATTTGTGGACAAGCCTGTGTCACCATACATGTATATCTCCCCACCAGAGGCCCTCGAAAACCCCTGCTATGAGTAAGTCCCTCCTCCAGACGCCAGGACAGCATCCTTTGCCCAGGAAGGTCCAAGTCCTGGTTCCTA (double strand) [GPIIIa Yukb/b 362 bp amplicon]
activity ([2]; 3H-methyl-SAM, 23 C, 5 mM EDTA, background 501): 12200 cpm

pBluescript SK+ polylinker 191 bp amplicon
activity [3, 5]: 85000 cpm
activity [4, 5]: 69700 cpm

pBluescript 191 bp amplicon predigested with EcoRI
activity ([3]; site cleaved, background 750): 770 cpm
activity ([4]; background 750, nearby frayed EcoRI end interferes): 1310 cpm

GGTGGGAGAAGAAGATAAAAAGTAACATCTTTCTGCCTTCCAGATGATTCGAAGAATTTCTCCATCCAAGTGCGGCAGGTGGAGGATTGCCCTGTGGACATCTACTACTTGATGGACCTGTCTTACTCCATGCCGGATGATCTGTGGAGCATCCAGAACCTGGGTACCAAGCTGGCCACCCAGATGCGAAAGCTCACCAGTAACCTGCGGATTGGCTTCGGGGCATTTGTGGACAAGCCTGTGTCACCATACATGTATATCTCCCCACCAGAGGCCCTCGAAAACCCCTGCTATGAGTAAGTCCCTCCTCCAGACGCCAGGACAGCATCCTTTGCCCAGGAAGGTCCAAGTCCTGGTTCCTA (double strand) [GPIIIa Yuka/a 362 bp amplicon]
activity ([2]; background 472): 506 cpm
